# B1: Mothers against decapentaplegic homolog 4 (Homo sapiens), Q13485 (parent)
# chain: MDNMSITNTPTSNDACLSIVHSLMCHRQGGESETFAKRAIESLVKKLKEKKDELDSLITAITTNGAHPSKCVTIQRTLDGRLQVAGRKGFPHVIYARLWRWPDLHKNELKHVKYCQYAFDLKCDSVCVNPYHYERVVSPGIDLSGLTLQSNAPSSMMVKDEYVHDFEGQPSLSTEGHSIQTIQHPPSNRASTETYSTPALLAPSESNATSTANFPNIPVASTSQPASILGGSHSEGLLQIASGPQPGQQQNGFTGQPATYHHNSTTTWTGSRTAPYTPNLPHHQNGHLQHHPPMPPHPGHYWPVHNELAFQPPISNHPAPEYWCSIAYFEMDVQVGETFKVPSSCPIVTVDGYVDPSGGDRFCLGQLSNVHRTEAIERARLHIGKGVQLECKGEGDVWVRCLSDHAVFVQSYYLDREAGRAPGDAVHKIYPSAYIKVFDLRQCHRQMQQQAATAQAAAAAQAAAVAGNIPGPGSVGGIAPAISLSAAAGIGVDDLRRLCILRMSFVKGWGPDYPRQSIKETPCWIEIHLHRALQLLDEVLHTMPIADPQPLD
# Variants of: B1
# Settings: with smad3_human SMAD3, P84022
# Chain of smad3_human SMAD3, P84022 (P84022 whole entry, looked up): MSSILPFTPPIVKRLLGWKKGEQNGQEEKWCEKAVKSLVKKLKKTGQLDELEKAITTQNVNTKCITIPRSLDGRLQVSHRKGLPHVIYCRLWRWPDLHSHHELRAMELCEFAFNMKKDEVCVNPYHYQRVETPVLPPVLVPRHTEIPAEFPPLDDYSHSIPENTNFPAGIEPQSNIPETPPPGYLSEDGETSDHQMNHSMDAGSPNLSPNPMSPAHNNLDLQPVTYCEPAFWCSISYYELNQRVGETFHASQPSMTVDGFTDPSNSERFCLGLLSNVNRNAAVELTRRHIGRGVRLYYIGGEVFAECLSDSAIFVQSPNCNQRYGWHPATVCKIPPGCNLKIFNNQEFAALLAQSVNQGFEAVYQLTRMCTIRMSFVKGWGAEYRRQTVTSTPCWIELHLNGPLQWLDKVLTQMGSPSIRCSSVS
row,effect of a mutation on the interaction,Variant
1,disrupting interaction strength,R361C

# Variants of: B1
# Settings: with agap2_human AGAP2, Q99490
row,effect of a mutation on the interaction,Variant
1,with no effect,R361C

# Variants of: B1
# Settings: with ajuba_human AJUBA
row,effect of a mutation on the interaction,Variant
1,with no effect,R361C

# Variants of: B1
# Settings: with akt1_human AKT1, P31749
row,effect of a mutation on the interaction,Variant
1,with no effect,R361C

# Variants of: B1
# Settings: with akts1_human AKT1S1, Q96B36
row,effect of a mutation on the interaction,Variant
1,with no effect,R361C

# Variants of: B1
# Settings: with akt3_human AKT3, Q9Y243
row,effect of a mutation on the interaction,Variant
1,with no effect,R361C

# Variants of: B1
# Settings: with alk_human ALK
row,effect of a mutation on the interaction,Variant
1,with no effect,R361C

# Variants of: B1
# Settings: with aph1a_human APH1A
row,effect of a mutation on the interaction,Variant
1,with no effect,R361C

# Variants of: B1
# Settings: with arc1a_human ARPC1A
row,effect of a mutation on the interaction,Variant
1,with no effect,R361C

# Variants of: B1
# Settings: with asxl1_human ASXL1, Q8IXJ9
# Chain of asxl1_human ASXL1, Q8IXJ9 (Q8IXJ9 whole entry): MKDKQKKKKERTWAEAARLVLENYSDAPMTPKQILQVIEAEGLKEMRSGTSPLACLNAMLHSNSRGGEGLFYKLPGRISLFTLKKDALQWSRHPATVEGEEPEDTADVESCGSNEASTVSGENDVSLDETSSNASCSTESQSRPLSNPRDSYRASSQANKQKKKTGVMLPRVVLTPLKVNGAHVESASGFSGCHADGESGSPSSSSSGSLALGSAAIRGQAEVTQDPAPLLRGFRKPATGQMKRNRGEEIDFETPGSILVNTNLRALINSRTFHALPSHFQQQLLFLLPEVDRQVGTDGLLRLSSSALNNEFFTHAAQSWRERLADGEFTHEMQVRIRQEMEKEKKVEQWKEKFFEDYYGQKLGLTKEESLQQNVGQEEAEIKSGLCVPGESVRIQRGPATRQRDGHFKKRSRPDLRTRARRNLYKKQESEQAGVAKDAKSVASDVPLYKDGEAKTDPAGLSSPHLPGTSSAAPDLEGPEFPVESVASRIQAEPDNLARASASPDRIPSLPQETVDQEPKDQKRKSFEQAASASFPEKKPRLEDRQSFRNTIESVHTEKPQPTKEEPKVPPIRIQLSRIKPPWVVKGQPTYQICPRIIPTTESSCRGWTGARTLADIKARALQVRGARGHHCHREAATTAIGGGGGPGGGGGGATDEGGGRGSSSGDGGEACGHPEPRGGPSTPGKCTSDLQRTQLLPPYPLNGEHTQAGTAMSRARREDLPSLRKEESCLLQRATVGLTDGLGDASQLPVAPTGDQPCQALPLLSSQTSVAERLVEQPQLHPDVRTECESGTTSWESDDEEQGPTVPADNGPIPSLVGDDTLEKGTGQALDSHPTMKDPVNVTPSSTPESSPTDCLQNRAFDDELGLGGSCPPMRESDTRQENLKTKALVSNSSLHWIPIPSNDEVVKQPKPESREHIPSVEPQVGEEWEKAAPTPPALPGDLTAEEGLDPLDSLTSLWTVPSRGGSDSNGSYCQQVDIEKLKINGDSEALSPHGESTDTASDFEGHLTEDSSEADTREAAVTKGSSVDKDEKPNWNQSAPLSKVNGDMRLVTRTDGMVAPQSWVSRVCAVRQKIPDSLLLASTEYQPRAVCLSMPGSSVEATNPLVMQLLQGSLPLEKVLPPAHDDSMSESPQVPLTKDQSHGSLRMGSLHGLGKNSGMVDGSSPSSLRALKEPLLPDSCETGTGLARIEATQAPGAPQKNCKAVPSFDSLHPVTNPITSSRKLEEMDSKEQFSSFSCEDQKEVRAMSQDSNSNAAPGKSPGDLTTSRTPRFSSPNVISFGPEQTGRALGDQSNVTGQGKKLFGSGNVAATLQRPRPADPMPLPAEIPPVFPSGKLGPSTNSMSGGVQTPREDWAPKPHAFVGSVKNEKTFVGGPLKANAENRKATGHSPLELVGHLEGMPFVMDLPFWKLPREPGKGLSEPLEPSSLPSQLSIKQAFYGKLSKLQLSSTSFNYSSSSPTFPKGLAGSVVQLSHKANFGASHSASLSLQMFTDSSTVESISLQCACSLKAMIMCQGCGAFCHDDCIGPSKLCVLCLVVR
row,effect of a mutation on the interaction,Variant
1,with no effect,R361C

# Variants of: B1
# Settings: with bakor_human ATG14, Q6ZNE5
row,effect of a mutation on the interaction,Variant
1,with no effect,R361C

# Variants of: B1
# Settings: with atpb_human ATP5F1B
row,effect of a mutation on the interaction,Variant
1,with no effect,R361C

# Variants of: B1
# Settings: with atrx_human ATRX
row,effect of a mutation on the interaction,Variant
1,with no effect,R361C

# Variants of: B1
# Settings: with aurkb_human AURKB
row,effect of a mutation on the interaction,Variant
1,with no effect,R361C

# Variants of: B1
# Settings: with ufo_human AXL
row,effect of a mutation on the interaction,Variant
1,with no effect,R361C

# Variants of: B1
# Settings: with za2g_human AZGP1, P25311
row,effect of a mutation on the interaction,Variant
1,with no effect,R361C

# Variants of: B1
# Settings: with b2mg_human B2M
row,effect of a mutation on the interaction,Variant
1,with no effect,R361C

# Variants of: B1
# Settings: with bap1_human BAP1, Q92560
row,effect of a mutation on the interaction,Variant
1,with no effect,R361C

# Variants of: B1
# Settings: with becn1_human BECN1, Q14457
row,effect of a mutation on the interaction,Variant
1,with no effect,R361C

# Variants of: B1
# Settings: with birc2_human BIRC2, Q13490
row,effect of a mutation on the interaction,Variant
1,with no effect,R361C

# Variants of: B1
# Settings: with braf_human BRAF
row,effect of a mutation on the interaction,Variant
1,with no effect,R361C

# Variants of: B1
# Settings: with cbl_human CBL
row,effect of a mutation on the interaction,Variant
1,with no effect,R361C

# Variants of: B1
# Settings: with cblb_human CBLB
row,effect of a mutation on the interaction,Variant
1,with no effect,R361C

# Variants of: B1
# Settings: with ccnd1_human CCND1, P24385
row,effect of a mutation on the interaction,Variant
1,with no effect,R361C

# Variants of: B1
# Settings: with ccnd2_human CCND2, P30279
row,effect of a mutation on the interaction,Variant
1,with no effect,R361C

# Variants of: B1
# Settings: with ccnd3_human CCND3, P30281
row,effect of a mutation on the interaction,Variant
1,with no effect,R361C

# Variants of: B1
# Settings: with cd44_human CD44, P16070
row,effect of a mutation on the interaction,Variant
1,with no effect,R361C

# Variants of: B1
# Settings: with cd79b_human CD79B
row,effect of a mutation on the interaction,Variant
1,with no effect,R361C

# Variants of: B1
# Settings: with cdk6_human CDK6, Q00534
row,effect of a mutation on the interaction,Variant
1,with no effect,R361C

# Variants of: B1
# Settings: with cdn2b_human CDKN2B
row,effect of a mutation on the interaction,Variant
1,with no effect,R361C

# Variants of: B1
# Settings: with cdn2c_human CDKN2C
row,effect of a mutation on the interaction,Variant
1,with no effect,R361C

# Variants of: B1
# Settings: with cebpa_human CEBPA
row,effect of a mutation on the interaction,Variant
1,with no effect,R361C

# Variants of: B1
# Settings: with ch3l1_human CHI3L1, P36222
row,effect of a mutation on the interaction,Variant
1,with no effect,R361C

# Variants of: B1
# Settings: with ctna1_human CTNNA1, P35221
row,effect of a mutation on the interaction,Variant
1,with no effect,R361C

# Variants of: B1
# Settings: with ctnb1_human CTNNB1, P35222
row,effect of a mutation on the interaction,Variant
1,with no effect,R361C

# Variants of: B1
# Settings: with cul3_human CUL3, Q13618
row,effect of a mutation on the interaction,Variant
1,with no effect,R361C

# Variants of: B1
# Settings: with dicer_human DICER1, Q9UPY3
row,effect of a mutation on the interaction,Variant
1,with no effect,R361C

# Variants of: B1
# Settings: with duox2_human DUOX2, Q9NRD8
row,effect of a mutation on the interaction,Variant
1,with no effect,R361C

# Variants of: B1
# Settings: with e2f1_human E2F1, Q01094
row,effect of a mutation on the interaction,Variant
1,with no effect,R361C

# Variants of: B1
# Settings: with e2f2_human E2F2, Q14209
# Chain of e2f2_human E2F2, Q14209 (Q14209 whole entry): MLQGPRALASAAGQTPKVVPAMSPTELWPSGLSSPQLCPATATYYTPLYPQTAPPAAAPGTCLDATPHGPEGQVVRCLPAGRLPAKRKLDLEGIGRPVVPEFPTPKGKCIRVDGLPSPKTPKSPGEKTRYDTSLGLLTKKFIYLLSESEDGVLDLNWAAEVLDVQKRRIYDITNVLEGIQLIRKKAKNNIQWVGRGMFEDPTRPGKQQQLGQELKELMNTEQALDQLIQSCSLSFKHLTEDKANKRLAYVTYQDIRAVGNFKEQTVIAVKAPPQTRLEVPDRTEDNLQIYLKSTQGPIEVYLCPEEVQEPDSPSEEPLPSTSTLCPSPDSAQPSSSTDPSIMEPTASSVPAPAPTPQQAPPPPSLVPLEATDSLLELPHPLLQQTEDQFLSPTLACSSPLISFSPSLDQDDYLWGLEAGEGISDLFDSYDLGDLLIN
row,effect of a mutation on the interaction,Variant
1,with no effect,R361C

# Variants of: B1
# Settings: with e2f4_human E2F4, Q16254
row,effect of a mutation on the interaction,Variant
1,with no effect,R361C

# Variants of: B1
# Settings: with e2f5_human E2F5, Q15329
# Chain of e2f5_human E2F5, Q15329 (Q15329 whole entry): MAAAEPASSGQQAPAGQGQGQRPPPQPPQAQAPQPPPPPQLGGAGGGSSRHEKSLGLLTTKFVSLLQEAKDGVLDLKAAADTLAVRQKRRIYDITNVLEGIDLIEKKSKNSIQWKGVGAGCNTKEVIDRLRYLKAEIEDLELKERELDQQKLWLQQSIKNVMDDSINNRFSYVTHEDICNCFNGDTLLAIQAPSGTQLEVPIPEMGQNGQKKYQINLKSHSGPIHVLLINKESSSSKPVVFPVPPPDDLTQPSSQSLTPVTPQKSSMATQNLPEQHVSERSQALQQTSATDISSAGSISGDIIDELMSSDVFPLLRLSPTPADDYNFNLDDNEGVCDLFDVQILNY
row,effect of a mutation on the interaction,Variant
1,with no effect,R361C

# Variants of: B1
# Settings: with if4e_human EIF4E
row,effect of a mutation on the interaction,Variant
1,with no effect,R361C

# Variants of: B1
# Settings: with epha7_human EPHA7, Q15375
row,effect of a mutation on the interaction,Variant
1,with no effect,R361C

# Variants of: B1
# Settings: with ephb1_human EPHB1, P54762
# Chain of ephb1_human EPHB1, P54762 (P54762 whole entry): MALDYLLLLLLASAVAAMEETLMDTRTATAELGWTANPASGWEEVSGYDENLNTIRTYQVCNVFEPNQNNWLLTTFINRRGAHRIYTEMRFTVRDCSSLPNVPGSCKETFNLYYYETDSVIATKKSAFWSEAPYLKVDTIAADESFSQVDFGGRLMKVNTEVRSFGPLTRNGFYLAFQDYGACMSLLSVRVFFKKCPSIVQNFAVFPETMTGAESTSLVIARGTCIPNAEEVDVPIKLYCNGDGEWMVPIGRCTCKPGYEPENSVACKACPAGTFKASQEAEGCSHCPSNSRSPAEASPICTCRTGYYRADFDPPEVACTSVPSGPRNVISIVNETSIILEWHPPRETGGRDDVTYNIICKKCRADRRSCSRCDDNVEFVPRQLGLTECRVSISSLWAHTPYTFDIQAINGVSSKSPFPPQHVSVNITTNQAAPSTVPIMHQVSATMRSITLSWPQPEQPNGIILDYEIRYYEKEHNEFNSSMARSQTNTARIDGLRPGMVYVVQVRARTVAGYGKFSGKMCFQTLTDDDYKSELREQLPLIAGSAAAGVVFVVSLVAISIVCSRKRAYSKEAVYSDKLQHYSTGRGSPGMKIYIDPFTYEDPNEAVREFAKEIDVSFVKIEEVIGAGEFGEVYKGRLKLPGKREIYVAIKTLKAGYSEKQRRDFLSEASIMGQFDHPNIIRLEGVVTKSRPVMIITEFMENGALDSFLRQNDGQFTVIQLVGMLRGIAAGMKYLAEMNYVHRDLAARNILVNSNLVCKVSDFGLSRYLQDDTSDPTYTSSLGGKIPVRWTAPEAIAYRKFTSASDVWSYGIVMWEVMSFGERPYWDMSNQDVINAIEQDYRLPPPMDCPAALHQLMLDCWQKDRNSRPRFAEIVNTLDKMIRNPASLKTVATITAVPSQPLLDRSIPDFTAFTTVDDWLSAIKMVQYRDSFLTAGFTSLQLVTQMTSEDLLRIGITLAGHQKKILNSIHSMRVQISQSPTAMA
row,effect of a mutation on the interaction,Variant
1,with no effect,R361C

# Variants of: B1
# Settings: with erbb4_human ERBB4, Q15303
row,effect of a mutation on the interaction,Variant
1,with no effect,R361C

# Variants of: B1
# Settings: with esr1_human ESR1, P03372
# Chain of esr1_human ESR1, P03372 (P03372 whole entry): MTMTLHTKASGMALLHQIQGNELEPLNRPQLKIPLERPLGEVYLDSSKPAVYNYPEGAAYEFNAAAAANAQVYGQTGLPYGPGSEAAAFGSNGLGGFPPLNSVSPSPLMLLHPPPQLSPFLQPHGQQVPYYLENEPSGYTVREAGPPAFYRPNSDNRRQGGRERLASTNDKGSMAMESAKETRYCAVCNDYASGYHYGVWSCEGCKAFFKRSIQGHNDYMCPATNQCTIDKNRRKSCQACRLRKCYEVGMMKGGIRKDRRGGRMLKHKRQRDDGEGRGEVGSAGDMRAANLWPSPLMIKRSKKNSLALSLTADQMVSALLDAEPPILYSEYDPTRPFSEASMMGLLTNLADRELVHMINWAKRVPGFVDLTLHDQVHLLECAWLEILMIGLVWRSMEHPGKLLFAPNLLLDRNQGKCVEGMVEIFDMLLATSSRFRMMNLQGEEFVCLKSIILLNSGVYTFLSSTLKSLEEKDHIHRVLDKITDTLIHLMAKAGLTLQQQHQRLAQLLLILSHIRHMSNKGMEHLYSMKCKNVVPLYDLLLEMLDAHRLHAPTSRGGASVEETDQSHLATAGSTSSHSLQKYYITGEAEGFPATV
row,effect of a mutation on the interaction,Variant
1,with no effect,R361C

# Variants of: B1
# Settings: with etv1_human ETV1, P50549
row,effect of a mutation on the interaction,Variant
1,with no effect,R361C

# Variants of: B1
# Settings: with fadd_human FADD
row,effect of a mutation on the interaction,Variant
1,with no effect,R361C

# Variants of: B1
# Settings: with facd2_human FANCD2, Q9BXW9
row,effect of a mutation on the interaction,Variant
1,with no effect,R361C

# Variants of: B1
# Settings: with fgf19_human FGF19, O95750
# Chain of fgf19_human FGF19, O95750 (O95750 whole entry): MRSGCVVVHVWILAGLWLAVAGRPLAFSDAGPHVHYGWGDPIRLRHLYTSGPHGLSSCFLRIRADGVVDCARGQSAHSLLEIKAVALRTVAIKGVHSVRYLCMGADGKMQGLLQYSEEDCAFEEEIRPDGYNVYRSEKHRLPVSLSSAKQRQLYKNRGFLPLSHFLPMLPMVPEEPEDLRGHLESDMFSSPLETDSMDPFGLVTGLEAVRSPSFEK
row,effect of a mutation on the interaction,Variant
1,with no effect,R361C

# Variants of: B1
# Settings: with fgfr3_human FGFR3, P22607
row,effect of a mutation on the interaction,Variant
1,with no effect,R361C

# Variants of: B1
# Settings: with fgfr4_human FGFR4, P22455
row,effect of a mutation on the interaction,Variant
1,with no effect,R361C

# Variants of: B1
# Settings: with foxo1_human FOXO1, Q12778
row,effect of a mutation on the interaction,Variant
1,with no effect,R361C

# Variants of: B1
# Settings: with foxo3_human FOXO3, O43524
row,effect of a mutation on the interaction,Variant
1,with no effect,R361C

# Variants of: B1
# Settings: with gbra6_human GABRA6, Q16445
row,effect of a mutation on the interaction,Variant
1,with no effect,R361C

# Variants of: B1
# Settings: with gata2_human GATA2, P23769
# Chain of gata2_human GATA2, P23769 (P23769 whole entry): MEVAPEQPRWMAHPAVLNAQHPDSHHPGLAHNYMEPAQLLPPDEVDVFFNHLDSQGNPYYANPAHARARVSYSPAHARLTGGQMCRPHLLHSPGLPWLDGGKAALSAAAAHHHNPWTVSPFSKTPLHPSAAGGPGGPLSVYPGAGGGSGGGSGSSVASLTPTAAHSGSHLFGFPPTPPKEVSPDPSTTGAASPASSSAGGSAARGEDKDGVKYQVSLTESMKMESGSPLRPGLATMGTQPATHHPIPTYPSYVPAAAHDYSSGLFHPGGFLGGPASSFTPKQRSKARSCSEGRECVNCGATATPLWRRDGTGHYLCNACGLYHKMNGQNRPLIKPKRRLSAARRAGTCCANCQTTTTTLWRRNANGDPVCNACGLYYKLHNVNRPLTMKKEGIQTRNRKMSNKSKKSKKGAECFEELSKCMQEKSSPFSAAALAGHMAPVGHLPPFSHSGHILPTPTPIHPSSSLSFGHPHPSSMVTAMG
row,effect of a mutation on the interaction,Variant
1,with no effect,R361C

# Variants of: B1
# Settings: with gata3_human GATA3, P23771
row,effect of a mutation on the interaction,Variant
1,with no effect,R361C

# Variants of: B1
# Settings: with gna11_human GNA11, P29992
row,effect of a mutation on the interaction,Variant
1,with no effect,R361C

# Variants of: B1
# Settings: with gnaq_human GNAQ
row,effect of a mutation on the interaction,Variant
1,with no effect,R361C
